Molecular target: recombinant protein carbonic anhydrase 12 (R&D Systems) (Homo sapiens (Human), UniProt O43570 25-291, limits assumed)
Sequence (O43570 25-291 limits assumed): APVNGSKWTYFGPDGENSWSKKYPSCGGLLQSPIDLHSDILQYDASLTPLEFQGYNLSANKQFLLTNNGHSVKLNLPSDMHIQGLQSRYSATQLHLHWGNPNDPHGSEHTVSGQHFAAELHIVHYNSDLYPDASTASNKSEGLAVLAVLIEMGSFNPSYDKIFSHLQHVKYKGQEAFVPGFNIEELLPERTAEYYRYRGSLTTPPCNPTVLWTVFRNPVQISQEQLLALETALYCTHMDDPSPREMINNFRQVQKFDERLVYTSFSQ

B1: clone ID 1 (phage displayed scFv) (scFv)
chain: EVQLVESGGGLVQPGGSLRLSCAASGYSYTDYNIYWVRQAPGKGLEWVGYIDPANGDTTYNQKFKGRATISVDKSKNTAYLQMNSLRAEDTAVYYCSRPIYYGAYWYFDVWGQGTLVTVSSDIQMTQSPSSLSASVGDRVTITCRASSPVTYMHWYQQKPGKAPKPWIYATSSLAPGVPSRFSGSGSGTDFTLTISSLQPEDFATYYCQQWSSNPLTFGQGTKVEIK
  ELISA signal relative to the 4B4 chimeric antibody: 1.5 times
